Measurements from PMC10901363 (Science Advances, 2024).
Where no end group is shown, it is not given here. [ ]: non-standard residue; d: D form. pY = N[C@@H](Cc1ccc(OP(=O)(O)O)cc1)C(=O)O

Columns and labels:
[1] = substrate: Cc1cc(=O)oc2c(F)c(OP(=O)(O)O)c(F)cc12; test: fluorescent phosphatase assay, Michaelis-Menten; assay type: biochemical, Homo sapiens; details: 50 mM Hepes pH 7.0, 150 mM NaCl, 1 mM EDTA, 2 mM DTT, RT, 0.2 nM enzyme
mini PTPN21-EGFP [2] = molecular target: T1, mini PTPN21-EGFP (UniProt Q16825 878-1174; Q16825 878-1174); test: MST; + Ins(1,3)P2
T1 chain: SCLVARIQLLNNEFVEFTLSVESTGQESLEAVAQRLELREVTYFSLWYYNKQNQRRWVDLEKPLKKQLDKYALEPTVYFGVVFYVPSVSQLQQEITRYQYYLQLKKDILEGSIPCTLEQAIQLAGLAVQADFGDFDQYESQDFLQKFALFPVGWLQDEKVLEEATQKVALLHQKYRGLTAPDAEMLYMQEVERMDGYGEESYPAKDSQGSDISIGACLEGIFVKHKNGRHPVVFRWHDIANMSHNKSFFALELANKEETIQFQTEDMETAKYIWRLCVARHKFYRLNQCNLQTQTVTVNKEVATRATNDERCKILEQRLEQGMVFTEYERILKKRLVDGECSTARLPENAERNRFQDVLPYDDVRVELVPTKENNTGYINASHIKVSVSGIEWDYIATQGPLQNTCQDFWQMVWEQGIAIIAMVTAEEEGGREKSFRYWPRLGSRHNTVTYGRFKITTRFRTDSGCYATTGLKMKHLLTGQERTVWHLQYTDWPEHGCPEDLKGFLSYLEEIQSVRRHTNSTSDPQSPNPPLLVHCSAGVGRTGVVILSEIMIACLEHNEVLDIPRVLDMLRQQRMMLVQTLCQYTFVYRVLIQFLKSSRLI

mini PTPN21-EGFP [3] = molecular target: T1, mini PTPN21-EGFP; test: MST
[4] = molecular target: T2, PTPN21 PTP E1067D C1108S-EGFP (UniProt Q16825 872-1174, E1067D | C1108S); test: MST; fluorescent PTP mutant-EGFP (80 nM) mixed with an increasing amount of Src pY530 peptide; 20 mM Hepes pH 7.0, 150 mM NaCl, 0.3 mM TCEP, 1.5 mM BSA; details: both partners purified
T2 construct: also called PTP^PTPN21 C1108S E1067D; source: E. coli Rosetta (DE3), purified (as the wild type); not shown: His-sumo, N-terminal, cleaved; EGFP, C-terminal, kept
T2 sequence (looked up): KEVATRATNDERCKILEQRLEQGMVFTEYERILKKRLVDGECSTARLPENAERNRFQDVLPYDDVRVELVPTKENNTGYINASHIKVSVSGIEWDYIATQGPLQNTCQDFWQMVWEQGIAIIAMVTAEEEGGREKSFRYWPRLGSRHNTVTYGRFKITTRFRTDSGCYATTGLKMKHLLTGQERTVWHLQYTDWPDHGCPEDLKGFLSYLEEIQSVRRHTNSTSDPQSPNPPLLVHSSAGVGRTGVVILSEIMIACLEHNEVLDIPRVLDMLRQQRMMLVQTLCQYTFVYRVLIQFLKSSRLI

PTPN21 PTP R1114Q [5] = molecular target: T3, PTPN21 PTP R1114Q (UniProt Q16825 872-1174, R1114Q); test: as above; details: both partners purified
T3 construct: also called PTP^PTPN21 R1114Q; source: E. coli Rosetta (DE3), purified (as the wild type)
T3 sequence (looked up): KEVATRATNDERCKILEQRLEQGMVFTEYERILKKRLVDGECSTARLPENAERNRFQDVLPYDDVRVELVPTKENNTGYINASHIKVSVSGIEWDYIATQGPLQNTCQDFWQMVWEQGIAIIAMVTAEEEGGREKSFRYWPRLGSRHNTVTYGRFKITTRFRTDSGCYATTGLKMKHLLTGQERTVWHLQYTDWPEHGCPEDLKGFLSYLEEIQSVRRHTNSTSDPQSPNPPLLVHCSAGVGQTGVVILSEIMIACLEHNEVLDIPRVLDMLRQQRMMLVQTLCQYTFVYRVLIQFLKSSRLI

PTPN21 PTP C1108S-EGFP [6] = molecular target: T4, PTPN21 PTP C1108S-EGFP (UniProt Q16825 872-1174, C1108S); test: as above; details: both partners purified
T4 construct: also called PTP^PTPN21 C1108S; source: E. coli Rosetta (DE3), purified (as the wild type); not shown: His-sumo, N-terminal, cleaved; EGFP, C-terminal, kept
T4 sequence (looked up): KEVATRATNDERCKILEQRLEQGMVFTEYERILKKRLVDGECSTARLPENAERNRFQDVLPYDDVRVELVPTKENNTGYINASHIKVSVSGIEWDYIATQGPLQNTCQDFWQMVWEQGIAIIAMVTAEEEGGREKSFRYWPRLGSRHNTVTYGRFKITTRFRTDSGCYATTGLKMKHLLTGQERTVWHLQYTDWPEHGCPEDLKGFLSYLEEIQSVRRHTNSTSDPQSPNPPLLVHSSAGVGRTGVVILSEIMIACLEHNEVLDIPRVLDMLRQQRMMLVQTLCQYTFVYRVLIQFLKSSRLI

PTPN21 PTP R1114Q [7] = molecular target: T5, PTPN21 PTP R1114Q (UniProt Q16825 872-1174, R1114Q); test: MST
T5 sequence: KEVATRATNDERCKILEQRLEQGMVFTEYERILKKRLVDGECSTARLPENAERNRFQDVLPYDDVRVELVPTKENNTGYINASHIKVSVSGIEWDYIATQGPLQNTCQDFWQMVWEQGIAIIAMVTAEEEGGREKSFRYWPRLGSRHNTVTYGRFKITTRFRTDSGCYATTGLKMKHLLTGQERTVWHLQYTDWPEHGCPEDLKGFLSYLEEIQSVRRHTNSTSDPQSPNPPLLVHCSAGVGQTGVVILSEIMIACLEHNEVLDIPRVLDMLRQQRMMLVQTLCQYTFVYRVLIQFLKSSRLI

PTPN21 PTP C1108S-EGFP [8] = molecular target: T6, PTPN21 PTP C1108S-EGFP (UniProt Q16825 872-1174, C1108S); test: MST
T6 sequence: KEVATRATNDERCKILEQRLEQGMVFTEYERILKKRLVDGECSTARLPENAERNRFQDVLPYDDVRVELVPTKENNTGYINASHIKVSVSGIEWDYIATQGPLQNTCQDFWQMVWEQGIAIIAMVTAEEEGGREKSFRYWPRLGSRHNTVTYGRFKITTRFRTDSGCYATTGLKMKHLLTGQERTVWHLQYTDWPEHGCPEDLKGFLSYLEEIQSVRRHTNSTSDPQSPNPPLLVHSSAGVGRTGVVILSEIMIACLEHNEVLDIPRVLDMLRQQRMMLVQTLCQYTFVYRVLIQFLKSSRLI

[9] = molecular target: T7, PTPN21 PTP E1067D C1108S-EGFP (UniProt Q16825 872-1174, E1067D | C1108S); test: MST
T7 sequence: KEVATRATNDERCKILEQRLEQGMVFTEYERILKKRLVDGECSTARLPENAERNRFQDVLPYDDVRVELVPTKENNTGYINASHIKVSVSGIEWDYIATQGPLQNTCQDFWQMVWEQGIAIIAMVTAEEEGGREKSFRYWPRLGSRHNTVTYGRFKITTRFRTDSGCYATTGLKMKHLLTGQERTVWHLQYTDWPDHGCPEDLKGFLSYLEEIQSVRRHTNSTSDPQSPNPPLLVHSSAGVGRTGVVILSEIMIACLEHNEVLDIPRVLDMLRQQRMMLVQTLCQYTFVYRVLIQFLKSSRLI

PTPN21 PTP C1108S [10] = molecular target: T8, PTPN21 PTP C1108S (UniProt Q16825 872-1174, C1108S); test: crystal structure; PTP C1108S with twofold molar excess of Src pY530 peptide, hanging drop, 4°C; details: both partners purified
T8 construct: also called PTP^PTPN21 C1108S; source: E. coli Rosetta (DE3), purified (as the wild type); not shown: His-sumo, N-terminal, cleaved
T8 sequence (looked up): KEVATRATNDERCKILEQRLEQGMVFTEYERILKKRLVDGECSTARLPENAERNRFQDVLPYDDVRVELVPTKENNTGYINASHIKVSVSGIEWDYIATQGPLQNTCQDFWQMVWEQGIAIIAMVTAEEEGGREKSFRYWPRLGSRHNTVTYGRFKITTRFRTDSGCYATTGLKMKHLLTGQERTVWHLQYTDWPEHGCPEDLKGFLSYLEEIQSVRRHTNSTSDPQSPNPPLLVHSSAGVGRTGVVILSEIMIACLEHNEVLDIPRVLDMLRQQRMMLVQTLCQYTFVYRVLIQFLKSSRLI

PTPN21 PTP-EGFP [11] = molecular target: T9, PTPN21 PTP-EGFP (UniProt Q16825 872-1174); test: MST; details: both partners purified
T9 construct: also called WT PTP-EGFP; source: E. coli Rosetta (DE3), purified (as the untagged domain); not shown: His-sumo, N-terminal, cleaved; EGFP, C-terminal, kept
T9 sequence (looked up): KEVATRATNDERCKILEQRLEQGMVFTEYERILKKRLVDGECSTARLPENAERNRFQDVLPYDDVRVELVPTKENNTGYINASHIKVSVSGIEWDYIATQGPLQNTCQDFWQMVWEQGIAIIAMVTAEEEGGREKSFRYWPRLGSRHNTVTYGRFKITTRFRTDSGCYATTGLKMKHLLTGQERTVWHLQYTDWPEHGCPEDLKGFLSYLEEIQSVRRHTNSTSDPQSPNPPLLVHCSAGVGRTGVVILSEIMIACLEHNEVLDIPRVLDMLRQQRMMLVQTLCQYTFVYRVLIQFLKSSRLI

PTPN21 PTP-EGFP [12] = molecular target: T9, PTPN21 PTP-EGFP; test: MST; PTP-EGFP fixed at 80 nM, FERM titrated from 300 μM to 0.09 nM; 20 mM Hepes pH 7.0, 150 mM NaCl, 0.3 mM TCEP, 1.5 mM BSA; mutants measured similarly; details: both partners purified
PTPN21 PTP C1108S [13] = molecular target: T8, PTPN21 PTP C1108S; test: crystal structure; mini PTPN21 C1108S: FERM and PTP joined on one chain by a flexible linker, hanging drop, 4°C; details: both partners purified

B1: PTPN21 PTP domain (PTP^PTPN21) (Homo sapiens; E1067D) (protein)
chain: KEVATRATNDERCKILEQRLEQGMVFTEYERILKKRLVDGECSTARLPENAERNRFQDVLPYDDVRVELVPTKENNTGYINASHIKVSVSGIEWDYIATQGPLQNTCQDFWQMVWEQGIAIIAMVTAEEEGGREKSFRYWPRLGSRHNTVTYGRFKITTRFRTDSGCYATTGLKMKHLLTGQERTVWHLQYTDWPDHGCPEDLKGFLSYLEEIQSVRRHTNSTSDPQSPNPPLLVHCSAGVGRTGVVILSEIMIACLEHNEVLDIPRVLDMLRQQRMMLVQTLCQYTFVYRVLIQFLKSSRLI
notes: PTP (phosphatase) domain, residues 872 to 1174; E. coli Rosetta (DE3), His-sumo tag removed
[1]
  Km: 250.93 ± 15.69 µM
  kcat: 38.32 ± 4.66 s⁻¹

B2: HPV18 E7 protein, full length (natural protein)
chain: MHGPKATLQDIVLHLEPQNEIPVDLLCHEQLSDSEEENDEIDGVNHQHLPARRAEPQRHTMLCMCCKCEARIKLVVESSADDLRAFQQLFLNTLSFVCPWCASQQ
Mini PTPN21-EGFP [2]
  Kd: 352 nM
Mini PTPN21-EGFP [3]
  Kd: 215 nM

B3: Src pY530 peptide (peptide)
peptide: STEPQ[pY]QPGENL
notes: also called Src pY530 synthetic peptide; Peptide Src pY530; source: synthetic peptide (ChinaPeptides Co. Ltd.)
[4]
  binding result: binds
PTPN21 PTP R1114Q [5]
  binding result: binds
PTPN21 PTP C1108S-EGFP [6]
  binding result: binds
PTPN21 PTP R1114Q [7]
  Kd: 6230 nM
PTPN21 PTP C1108S-EGFP [8]
  Kd: 2930 nM
[9]
  Kd: 5610 nM
PTPN21 PTP C1108S [10]
  binding result: binds

B4: HPV18 E7 CR3 domain (domain or fragment)
chain: AEPQRHTMLCMCCKCEARIKLVVESSADDLRAFQQLFLNTLSFVCPWCASQQ
notes: source: E. coli Rosetta (DE3), purified (as the PTPN21 domains); not shown: His-sumo, N-terminal, cleaved
Mini PTPN21-EGFP [2]
  Kd: 40.3 nM
PTPN21 PTP-EGFP [11]
  Kd: ~2.8 nM

B5: PTPN21 FERM domain (residues 21 to 319) (domain or fragment, UniProt Q16825 21-319, looked up)
chain: SCLVARIQLLNNEFVEFTLSVESTGQESLEAVAQRLELREVTYFSLWYYNKQNQRRWVDLEKPLKKQLDKYALEPTVYFGVVFYVPSVSQLQQEITRYQYYLQLKKDILEGSIPCTLEQAIQLAGLAVQADFGDFDQYESQDFLQKFALFPVGWLQDEKVLEEATQKVALLHQKYRGLTAPDAEMLYMQEVERMDGYGEESYPAKDSQGSDISIGACLEGIFVKHKNGRHPVVFRWHDIANMSHNKSFFALELANKEETIQFQTEDMETAKYIWRLCVARHKFYRLNQCNLQTQTVTVN
notes: also called FERM^PTPN21; source: E. coli Rosetta (DE3), purified (Ni-NTA, source Q, Superdex 200); not shown: His-sumo, N-terminal, cleaved
PTPN21 PTP-EGFP [12]
  Kd: ~7600 nM
PTPN21 PTP C1108S [13]
  binding result: binds
